Source: paper PMC10899256 (2024)

B1: LKB1 LFa peptide WT [human] / purified TBC1D23 PH domain (545–684) [human] (parent complex)
chain 1: GADEDEDLFDIEDDIIYTQD
chain 2: YDTDEIDSSSMSDDDRKEVVNIQTWINKPDVKHHFPCKEVKESGHMFPSHLLVTATHMYCLREIVSRKGLAYIQSRQALNSVVKITSKKKHPELITFKYGNSSASGIEILAIERYLIPNAGDATKAIKQQIMKVLDALES

Variants of: B1
Assay: ITC; read off a plot

Going from chain 1 F9A to chain 1 F9L, the Ka falls from ~5 10^4 M^-1 to ~4.6 10^4 M^-1.
